Data from the supplement of paper PMC5998384.

Key:
HeLa Kyoto [1] = experiment: solubility in G1/S (NP-40 vs SDS abundance) (log2 ratio); higher = more soluble; settings: cell cycle stage: G1/S
HeLa Kyoto [2] = experiment: melting temperature (median over replicates), in situ; higher = more thermally stable
HeLa Kyoto [3] = experiment: solubility change mitosis vs G1/S (difference of NP-40 vs SDS log2 ratios) (log2 ratio difference); higher = more soluble in mitosis
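Wherever melting temperature (median over replicates), in situ is given: HeLa Kyoto cells synchronized by double thymidine or nocodazole block, proteins quantified by TMT10plex mass spectrometry, three independent biological replicates.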
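Wherever solubility change mitosis vs G1/S (difference of NP-40 vs SDS log2 ratios) is given: synchronized HeLa Kyoto cells (double thymidine block for G1/S, nocodazole release for mitosis), protein amounts in NP-40 versus SDS lysates quantified by mass spectrometry, three biological replicates.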
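Wherever solubility in G1/S (NP-40 vs SDS abundance) is given: HeLa Kyoto cells arrested at G1/S by double thymidine block, proteins quantified by TMT10plex mass spectrometry in mild NP-40 versus SDS extracts, three biological replicates.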

GNG12, sequence (chain, as listed by the source): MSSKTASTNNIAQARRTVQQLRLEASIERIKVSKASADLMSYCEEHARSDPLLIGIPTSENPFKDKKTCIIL

| Substance | solubility in G1/S (log2) (HeLa Kyoto [1]) | melting temperature (HeLa Kyoto [2]; cell cycle stage: G1/S) [°C] | melting temperature (HeLa Kyoto [2]; cell cycle stage: mitosis) [°C] | solubility change mitosis (log2) (HeLa Kyoto [3]) |
| --- | --- | --- | --- | --- |
| MGSQALPPGPMQTLIFFDMEATGLPFSQPKVTELCLLAVHRCALESPPTSQGPPPTVPPPPRVVDKLSLCVAPGKACSPAASEITGLSTAVLAAHGRQCFDDNLANLLLAFLRRQPQPWCLVAHNGDRYDFPLLQAELAMLGLTSALDGAFCVDSITALKALERASSPSEHGPRKSYSLGSIYTRLYGQSPPDSHTAEGDVLALLSICQWRPQALLRWVDAHARPFGTIRPMYGVTASARTKPRPSAVTTTAHLATTRNTSPSLGESRGTKDLPPVKDPGALSREGLLAPLGLLAILTLAVATLYGLSLATPGE [TREX1] | -0.198 | 53.5 | 56.2 | 0.329 |
| MSAKPEVSLVREASRQIVAGGSAGLVEICLMHPLDVVKTRFQIQRCATDPNSYKSLVDSFRMIFQMEGLFGFYKGILPPILAETPKRAVKFFTFEQYKKLLGYVSLSPALTFAIAGLGSGLTEAIVVNPFEVVKVGLQANRNTFAEQPSTVGYARQIIKKEGWGLQGLNKGLTATLGRHGVFNMVYFGFYYNVKNMIPVNKDPILEFWRKFGIGLLSGTIASVINIPFDVAKSRIQGPQPVPGEIKYRTCFKTMATVYQEEGILALYKGLLPKIMRLGPGGAVMLLVYEYTYSWLQENW [SLC25A21] | -0.251 | 56.9 | 55.7 | -0.00648 |
| MALLAEHLLKPLPADKQIETGPFLEAVSHLPPFFDCLGSPVFTPIKADISGNITKIKAVYDTNPAKFRTLQNILEVEKEMYGAEWPKVGATLALMWLKRGLRFIQVFLQSICDGERDENHPNLIRVNATKAYEMALKKYHGWIVQKIFQAALYAAPYKSDFLKALSKGQNVTEEECLEKIRLFLVNYTATIDVIYEMYTQMNAELNYKV [GLTP] | -0.139 | – | 53.3 | -0.117 |
| MRDNTSPISVILVSSGSRGNKLLFRYPFQRSQEHPASQTSKPRSRYAASNTGDHADEQDGDSRFSDVILATILATKSEMCGQKFELKIDNVRFVGHPTLLQHALGQISKTDPSPKREAPTMILFNVVFALRANADPSVINCLHNLSRRIATVLQHEERRCQYLTREAKLILALQDEVSAMADGNEGPQSPFHHILPKCKLARDLKEAYDSLCTSGVVRLHINSWLEVSFCLPHKIHYAASSLIPPEAIERSLKAIRPYHALLLLSDEKSLLGELPIDCSPALVRVIKTTSAVKNLQQLAQDADLALLQVFQLAAHLVYWGKAIIIYPLCENNVYMLSPNASVCLYSPLAEQFSHQFPSHDLPSVLAKFSLPVSLSEFRNPLAPAVQETQLIQMVVWMLQRRLLIQLHTYVCLMASPSEEEPRPREDDVPFTARVGGRSLSTPNALSFGSPTSSDDMTLTSPSMDNSSAELLPSGDSPLNQRMTENLLASLSEHERAAILSVPAAQNPEDLRMFARLLHYFRGRHHLEEIMYNENTRRSQLLMLFDKFRSVLVVTTHEDPVIAVFQALLP [NPRL3] | -0.108 | 50.8 | 52.5 | 0.129 |
| MASSLNEDPEGSRITYVKGDLFACPKTDSLAHCISEDCRMGAGIAVLFKKKFGGVQELLNQQKKSGEVAVLKRDGRYIYYLITKKRASHKPTYENLQKSLEAMKSHCLKNGVTDLSMPRIGCGLDRLQWENVSAMIEEVFEATDIKITVYTL [OARD1] | 0.299 | – | 50.5 | 0.139 |
| GNG12 | -1.84 | 52.4 | 54 | 0.506 |
| MDLPVGPGAAGPSNVPAFLTKLWTLVSDPDTDALICWSPSGNSFHVFDQGQFAKEVLPKYFKHNNMASFVRQLNMYGFRKVVHIEQGGLVKPERDDTEFQHPCFLRGQEQLLENIKRKVTSVSTLKSEDIKIRQDSVTKLLTDVQLMKGKQECMDSKLLAMKHENEALWREVASLRQKHAQQQKVVNKLIQFLISLVQSNRILGVKRKIPLMLNDSGSAHSMPKYSRQFSLEHVHGSGPYSAPSPAYSSSSLYAPDAVASSGPIISDITELAPASPMASPGGSIDERPLSSSPLVRVKEEPPSPPQSPRVEEASPGRPSSVDTLLSPTALIDSILRESEPAPASVTALTDARGHTDTEGRPPSPPPTSTPEKCLSVACLDKNELSDHLDAMDSNLDNLQTMLSSHGFSVDTSALLDLFSPSVTVPDMSLPDLDSSLASIQELLSPQEPPRPPEAENSSPDSGKQLVHYTAQPLFLLDPGSVDTGSNDLPVLFELGEGSYFSEGDGFAEDPTISLLTGSEPPKAKDPTVS [HSF1] | 0.523 | 47.9 | 49.8 | -0.148 |
| MSVFGKLFGAGGGKAGKGGPTPQEAIQRLRDTEEMLSKKQEFLEKKIEQELTAAKKHGTKNKRAALQALKRKKRYEKQLAQIDGTLSTIEFQREALENANTNTEVLKNMGYAAKAMKAAHDNMDIDKVDELMQDIADQQELAEEISTAISKPVGFGEEFDEDELMAELEELEQEELDKNLLEISGPETVPLPNVPSIALPSKPAKKKEEEDDDMKELENWAGSM [CHMP4B] | 0.507 | 55 | 52.5 | 0.775 |
| MSGFNFGGTGAPTGGFTFGTAKTATTTPATGFSFSTSGTGGFNFGAPFQPATSTPSTGLFSLATQTPATQTTGFTFGTATLASGGTGFSLGIGASKLNLSNTAATPAMANPSGFGLGSSNLTNAISSTVTSSQGTAPTGFVFGPSTTSVAPATTSGGFSFTGGSTAQPSGFNIGSAGNSAQPTAPATLPFTPATPAATTAGATQPAAPTPTATITSTGPSLFASIATAPTSSATTGLSLCTPVTTAGAPTAGTQGFSLKAPGAASGTSTTTSTAATATATTTSSSSTTGFALNLKPLAPAGIPSNTAAAVTAPPGPGAAAGAAASSAMTYAQLESLINKWSLELEDQERHFLQQATQVNAWDRTLIENGEKITSLHREVEKVKLDQKRLDQELDFILSQQKELEDLLSPLEELVKEQSGTIYLQHADEEREKTYKLAENIDAQLKRMAQDLKDIIEHLNTSGAPADTSDPLQQICKILNAHMDSLQWIDQNSALLQRKVEEVTKVCEGRRKEQERSFRITFD [NUP62] | 0.32 | 51.8 | 51.7 | 0.107 |
| MGNTLTCCVSPNASPKLGRRAGSAELYCASDIYEAVSGDAVAVAPAVVEPAELDFGEGEGHHLQHISDREMPEDLALESNPSDHPRASTIFLSKSQTDVREKRKSNHLNHVSPGQLTKKYSSCSTIFLDDSTVSQPNLRTTVKCVTLAIYYHIKNRDANRSLDIFDERSHPLTREKVPEEYFKHDPEHKFIYRFVRTLFSAAQLTAECAIVTLVYLERLLTYAEIDICPTNWKRIVLGAILLASKVWDDQAVWNVDYCQILKDITVEDMNEMERHFLELLQFNINVPASVYAKYYFDLRSLADDNNLNFLFAPLSKERAQNLEAISRLCEDKDLCRAAMRRSFSADNFIGIQRSKAILS [CCNYL1] | -0.167 | 48.9 | 49.2 | -0.0896 |
| MGEQPIFSTRAHVFQIDPNTKKNWVPTSKHAVTVSYFYDSTRNVYRIISLDGSKAIINSTITPNMTFTKTSQKFGQWADSRANTVYGLGFSSEHHLSKFAEKFQEFKEAARLAKEKSQEKMELTSTPSQESAGGDLQSPLTPESINGTDDERTPDVTQNSEPRAEPTQNALPFSHSSAISKHWEAELATLKGNNAKLTAALLESTANVKQWKQQLAAYQEEAERLHKRVTELECVSSQANAVHTHKTELNQTIQELEETLKLKEEEIERLKQEIDNARELQEQRDSLTQKLQEVEIRNKDLEGQLSDLEQRLEKSQNEQEAFRNNLKTLLEILDGKIFELTELRDNLAKLLECS [HOMER1] | 0.426 | 51 | 51.9 | 0.185 |
| MASYFDEHDCEPSDPEQETRTNMLLELARSLFNRMDFEDLGLVVDWDHHLPPPAAKTVVENLPRTVIRGSQAELKCPVCLLEFEEEETAIEMPCHHLFHSSCILPWLSKTNSCPLCRYELPTDDDTYEEHRRDKARKQQQQHRLENLHGAMYT [RNF181] | 0.563 | 54.8 | 55.8 | 0.00514 |
| MGNLFGRKKQSRVTEQDKAILQLKQQRDKLRQYQKRIAQQLERERALARQLLRDGRKERAKLLLKKKRYQEQLLDRTENQISSLEAMVQSIEFTQIEMKVMEGLQFGNECLNKMHQVMSIEEVERILDETQEAVEYQRQIDELLAGSFTQEDEDAILEELSAITQEQIELPEVPSEPLPEKIPENVPVKARPRQAELVAAS [CHMP6] | 0.453 | – | 52.2 | 0.149 |
| H2AFV | -0.332 | 52.5 | – | 0.429 |
| MARDLIGPALPPGFKARGTAEDEERDPSPVAGPALPPNYKSSSSDSSDSDEDSSSLYEEGNQESEEDDSGPTARKQRKNQDDDDDDDDGFFGPALPPGFKKQDDSPPRPIIGPALPPGFIKSTQKSDKGRDDPGQQETDSSEDEDIIGPMPAKGPVNYNVTTEFEKRAQRMKEKLTKGDDDSSKPIVRESWMTELPPEMKDFGLGPRTFKRRADDTSGDRSIWTDTPADRERKAKETQEARKSSSKKDEEHILSGRDKRLAEQVSSYNESKRSESLMDIHHKKLKSKAAEDKNKPQERIPFDRDKDLKVNRFDEAQKKALIKKSRELNTRFSHGKGNMFL [GPALPP1] | 0.0784 | 55.1 | 56.1 | 0.245 |
| MELIQDTSRPPLEYVKGVPLIKYFAEALGPLQSFQARPDDLLINTYPKSGTTWVSQILDMIYQGGDLEKCNRAPIYVRVPFLEVNDPGEPSGLETLKDTPPPRLIKSHLPLALLPQTLLDQKVKVVYVARNPKDVAVSYYHFHRMEKAHPEPGTWDSFLEKFMAGEVSYGSWYQHVQEWWELSRTHPVLYLFYEDMKENPKREIQKILEFVGRSLPEETMDFMVQHTSFKEMKKNPMTNYTTVPQELMDHSISPFMRKGMAGDWKTTFTVAQNERFDADYAEKMAGCSLSFRSEL [SULT1A3] | 0.432 | 48.5 | 49.2 | -0.174 |
| MDTEPNPGTSSVSTTTSSTTTTTITTSSSRMQQPQISVYSGSDRHAVQVIQQALHRPPSSAAQYLQQMYAAQQQHLMLHTAALQQQHLSSSQLQSLAAVQASLSSGRPSTSPTGSVTQQSSMSQTSINLSTSPTPAQLISRSQASSSTSGSITQQTMLLGSTSPTLTASQAQMYLRAQMLIFTPATTVAAVQSDIPVVSSSSSSSCQSAATQVQNLTLRSQKLGVLSSSQNGPPKSTSQTQSLTICHNKTTVTSSKISQRDPSPESNKKGESPSLESRSTAVTRTSSIHQLIAPASYSPIQPHSLIKHQQIPLHSPPSKVSHHQLILQQQQQQIQPITLQNSTQDPPPSQHCIPLQNHGLPPAPSNAQSQHCSPIQSHPSPLTVSPNQSQSAQQSVVVSPPPPHSPSQSPTIIIHPQALIQPHPLVSSALQPGPNLQQSTANQVQATAQLNLPSHLPLPASPVVHIGPVQQSALVSPGQQIVSPSHQQYSSLQSSPIPIASPPQMSTSPPAQIPPLPLQSMQSLQVQPEILSQGQVLVQNALVSEEELPAAEALVQLPFQTLPPPQTVAVNLQVQPPAPVDPPVVYQVEDVCEEEMPEESDECVRMDRTPPPPTLSPAAITVGRGEDLTSEHPLLEQVELPAVASVSASVIKSPSDPSHVSVPPPPLLLPAATTRSNSTSMHSSIPSIENKPPQAIVKPQILTHVIEGFVIQEGLEPFPVSRSSLLIEQPVKKRPLLDNQVINSVCVQPELQNNTKHADNSSDTEMEDMIAEETLEEMDSELLKCEFCGKMGYANEFLRSKRFCTMSCAKRYNVSCSKKFALSRWNRKPDNQSLGHRGRRPSGPDGAAREHILRQLPITYPSAEEDLASHEDSVPSAMTTRLRRQSERERERELRDVRIRKMPENSDLLPVAQTEPSIWTVDDVWAFIHSLPGCQDIADEFRAQEIDGQALLLLKEDHLMSAMNIKLGPALKICARINSLKES [PHC3] | -0.44 | 46.5 | 50.2 | 0.439 |
